Assay [1] concerns the target T1, EBNA2_(381–389) peptide with an additional Gly-Tyr dipeptide at the C-terminus (NH2-[…]-CONH2) (Epstein-Barr virus, strain B95-8, C-terminal amide (CONH2)). Nature of the assay: ITC. (Isothermal titration calorimetry measures the heat released or taken up as one component is titrated into another.)
For assay [2], the target named is T1, EBNA2_(381–389) peptide with an …. The assay is described as follows: ITC; N fixed to 1.

The Kd is the equilibrium constant for the complex coming apart. A lower Kd goes with tighter binding.

On to QTKKKQWCYNCEEEAMAHCCWNTSYCSIKCQQEHWHAEHKRTCRRKR (domain or fragment) [BS69_(MYND) Y532A], for which binding in assay [1] was put at a Kd of 64.5 µM. For the molecule QTKKKQWCYNCEEEAMYHCCWNTSYCSIKCQQEHWHAEHKRTCRAKR (domain or fragment) [BS69_(MYND) R560A], the dissociation constant (Kd) in assay [2] was around 279 µM.
